# Residue numbers refer to the chain shown, from its start. In names and notes the source's numbering stands.
# T1: recombinant Factor VIII (CSL627, rVIII-SingleChain) (Homo sapiens (Human), UniProt P00451 20-2351)
# T1 construct: also called FVIII
# T1 sequence: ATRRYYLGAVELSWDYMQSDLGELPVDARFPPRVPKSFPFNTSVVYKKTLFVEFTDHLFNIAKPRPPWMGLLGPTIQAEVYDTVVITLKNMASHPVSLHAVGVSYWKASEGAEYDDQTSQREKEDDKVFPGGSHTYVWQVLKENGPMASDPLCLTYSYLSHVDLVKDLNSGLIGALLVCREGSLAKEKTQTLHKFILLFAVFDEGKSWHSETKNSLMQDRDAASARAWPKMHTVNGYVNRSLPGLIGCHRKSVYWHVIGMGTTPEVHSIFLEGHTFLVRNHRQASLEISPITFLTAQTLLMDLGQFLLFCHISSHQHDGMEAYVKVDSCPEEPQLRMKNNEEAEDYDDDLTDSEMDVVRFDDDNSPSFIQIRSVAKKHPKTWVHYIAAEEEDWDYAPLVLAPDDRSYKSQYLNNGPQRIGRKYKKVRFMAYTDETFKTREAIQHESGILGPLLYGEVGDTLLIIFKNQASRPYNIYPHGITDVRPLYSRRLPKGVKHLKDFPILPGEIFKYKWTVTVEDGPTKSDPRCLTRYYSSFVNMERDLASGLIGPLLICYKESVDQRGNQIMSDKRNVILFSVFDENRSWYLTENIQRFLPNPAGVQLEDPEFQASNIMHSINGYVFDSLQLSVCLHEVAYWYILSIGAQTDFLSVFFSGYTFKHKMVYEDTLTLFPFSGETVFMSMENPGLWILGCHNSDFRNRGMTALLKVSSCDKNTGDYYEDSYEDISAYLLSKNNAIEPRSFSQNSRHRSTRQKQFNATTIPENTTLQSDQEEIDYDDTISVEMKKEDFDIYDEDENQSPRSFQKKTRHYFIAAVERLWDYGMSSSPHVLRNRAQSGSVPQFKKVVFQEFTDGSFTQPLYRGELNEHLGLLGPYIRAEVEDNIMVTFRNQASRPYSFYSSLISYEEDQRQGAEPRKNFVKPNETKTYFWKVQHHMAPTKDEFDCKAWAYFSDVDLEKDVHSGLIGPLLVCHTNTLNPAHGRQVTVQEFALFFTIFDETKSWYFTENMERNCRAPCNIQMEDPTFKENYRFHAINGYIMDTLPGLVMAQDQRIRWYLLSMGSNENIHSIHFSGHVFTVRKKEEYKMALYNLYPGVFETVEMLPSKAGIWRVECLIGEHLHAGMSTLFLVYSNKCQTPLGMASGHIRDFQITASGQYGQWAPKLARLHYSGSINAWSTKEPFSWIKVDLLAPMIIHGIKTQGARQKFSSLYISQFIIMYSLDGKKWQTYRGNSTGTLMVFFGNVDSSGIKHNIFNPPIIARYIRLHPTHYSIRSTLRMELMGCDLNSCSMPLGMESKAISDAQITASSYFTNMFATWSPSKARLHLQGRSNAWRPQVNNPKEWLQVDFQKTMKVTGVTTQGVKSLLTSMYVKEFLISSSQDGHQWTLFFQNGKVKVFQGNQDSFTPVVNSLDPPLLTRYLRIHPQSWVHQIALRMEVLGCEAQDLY
# B1: Hu-vWF[764-1270]-8His S764P-S766M (other)
# chain: PLMCRPPMVKLVCPADNLRAEGLECTKTCQNYDLECMSMGCVSGCLCPPGMVRHENRCVALERCPCFHQGKEYAPGETVKIGCNTCVCRDRKWNCTDHVCDATCSTIGMAHYLTFDGLKYLFPGECQYVLVQDYCGSNPGTFRILVGNKGCSHPSVKCKKRVTILVEGGEIELFDGEVNVKRPMKDETHFEVVESGRYIILLLGKALSVVWDRHLSISVVLKQTYQEKVCGLCGNFDGIQNNDLTSSNLQVEEDPVDFGNSWKVSSQCADTRKVPLDSSPATCHNNIMKQTMVDSSCRILTSDVFQDCNKLVDPEPYLDVCIYDTCSCESIGDCACFCDTIAAYAHVCAQHGKVVTWRTATLCPQSCEERNLRENGYECEWRYNSCAPACQVTCQHPEPLACPVQCVEGCHAHCPPGKILDELLQTCVDPEDCPVCEVAGRRFASGKKVTLNPSDPEHCQICHCDVVNLTCEACQEPGGLVVPPTDAPVSPTTLYVEDISEPPLHDFHHHHHHHH
# B2: Hu-vWF[764-1270]-8His S766Y-K773H (other)
# chain: B1 chain with P1S, M3Y, K10H
# B3: Hu-vWF[764-1270]-8His S766Y-K773F (other)
# chain: B1 chain with P1S, M3Y, K10F
# B4: Hu-vWF[764-1270]-8His S764P-S766T (other)
# chain: B1 chain with M3T
# B5: Hu-vWF[764-1270]-8His S764P-S766P (other)
# chain: B1 chain with M3P
# B6: Hu-vWF[764-1270]-8His S766Y-K773G (other)
# chain: B1 chain with P1S, M3Y, K10G
# B7: Hu-vWF[764-1270]-8His S764P-S766Q (other)
# chain: B1 chain with M3Q
# B8: Hu-vWF[764-1270]-8His S766Y-K773D (other)
# chain: B1 chain with P1S, M3Y, K10D
# B9: Hu-vWF[764-1270]-8His S764P-S766W (other)
# chain: B1 chain with M3W
# B10: Hu-vWF[764-1270]-8His S764P-S766V (other)
# chain: B1 chain with M3V
# B11: Hu-vWF[764-1270]-8His S766Y-K773E (other)
# chain: B1 chain with P1S, M3Y, K10E
# B12: Hu-vWF[764-1270]-8His S764P-S766R (other)
# chain: B1 chain with M3R
# B13: Hu-vWF[764-1270]-8His S766Y-K773I (other)
# chain: B1 chain with P1S, M3Y, K10I
# B14: Hu-vWF[764-1270]-8His S764P-S766N (other)
# chain: B1 chain with M3N
# B15: Hu-vWF[764-1270]-8His S766Y-K773L (other)
# chain: B1 chain with P1S, M3Y, K10L
# B16: Hu-vWF[764-1270]-8His S766Y-K773A (other)
# chain: B1 chain with P1S, M3Y, K10A
# Biological target: T1, recombinant Factor VIII (CSL627, …)
# Assay: SPR, anti-His capture
# In short: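 His-tagged mutants captured from culture medium (40–150 RU) on anti-His CM-5 surface at 37° C; FVIII injected 5 min, dissociation 5 min, at 1 nM in screening. Double-referenced sensorgrams fitted to a 1:1 kinetic model.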
Kd [nM],koff [s⁻¹],kon [M⁻¹ s⁻¹],Binder
0.00488,5.76e-05,1.18e+07,B1
0.114,0.0062,5.47e+07,B2
0.158,0.00324,2.05e+07,B3
0.0116,0.000105,9.01e+06,B4
0.0848,0.00217,2.56e+07,B5
0.0327,0.00197,6.02e+07,B6
0.0102,0.000123,1.2e+07,B7
0.343,0.0427,1.25e+08,B8
0.00727,8e-05,1.1e+07,B9
0.0956,7.82e-05,819000,B10
0.261,0.00481,1.84e+07,B11
0.00921,0.000119,1.29e+07,B12
0.071,0.000569,8.02e+06,B13
0.0104,9.14e-05,8.82e+06,B14
0.0192,0.000345,1.79e+07,B15
0.0651,0.00122,1.88e+07,B16
